{
  "source": "paper PMC12669755",
  "target": "3xFLAG::mScarlet::WAGO-4 (UniProt O62275)",
  "test": "in vitro phase separation (condensate partitioning, confocal fluorescence microscopy)",
  "data": [
    {"substance": "minimal P granules (condensates of PGL-1, PGL-3, GLH-1 and GLH-4 with poly-A+ mRNA), WT GLH-1 and GLH-4 (from UniProt Q9TZQ3;G5EBV6;P34689;O76743) GLH-1(F→A); GLH-4(F→A)", "values": [
      {"measurement": "other: condensed / dilute phase mScarlet::WAGO-4 fluorescence ratio", "setting": "second replicate, n = 36 ROIs, buffer-only negative control ratios in the same panel: WT 1.36, FG* 1.41, parent: 2.45", "value": 2.09},
      {"measurement": "other: condensed / dilute phase mScarlet::WAGO-4 fluorescence ratio", "setting": "single experiment, n = 32-36 ROIs, buffer-only negative control ratios in the same panel: WT 1.36, FG* 1.32, parent: 3.04", "value": 2.53}
    ]}
  ]
}
